Data from US20230322908A1 (AC IMMUNE, published 2023).
Values belong to the binder of their own block, whether it stands above or below them. Where no end group is shown, it is not given here.

Key:
[1] = target: T1, recombinant human full-length TDP-43 (TAR DNA-binding protein 43), soluble (human, UniProt Q13148 1-414); assay: SPR, immobilized soluble TDP-43
T1 construct: Used on Luminex beads, coated on ELISA plates, and immobilized or injected in SPR; also called FL TDP-43; TDP-43 protein
Procedure: (§1) Binding avidity to soluble or aggregated FL TDP-43 was evaluated by determing the dissociation constants (KD) using surface plasmon resonance (SPR; Biacore T200, GE Healthcare Life Sciences). Recombinant human soluble or aggregated FL TDP-43 were immobilized on a CM5 Series S sensor chip (GE Healthcare Life Sciences) by amine coupling. Soluble TDP-43 was immobilized at a concentration of 5 µg/ml in 10 mM sodium acetate (pH 4.5) with a flow rate of 5 µl/min for 420 seconds resulting in an immobilization level of 150 RU. Aggregated TDP-43 was immobilized at a concentration of 50 µg/ml in 10 mM sodium acetate (pH 4.5) with a flow rate of 5 µl/min for 840 seconds resulting in an immobilization level of 110 RU. Biotinylated TP-73 peptide (aa 181-190 of SEQ ID NO:1) was immobilized on a Series S Sensor Chip SA (GE Healthcare Life Sciences) at a concentration of 5 µg/ml in PBS-P⁺ with a flow rate of 5 µl/min for 30 seconds resulting in an immobilization level of 400 RU. […] The antibodies were injected at a flow rate of 50 µl/min for 90 seconds contact time and 700 seconds dissociation phase followed by three regenerations with 10 mM glycine-HCl pH 1.7. For the optimized SPR protocol the antibodies were diluted 3-fold starting from 300 nM and dilute down to 1.2 nM and injected for 300 seconds at 30 µl/min followed by 600 seconds dissociation. The surface was regenerated by one injection with 10 mM glycine-HCl pH 1.7. Results obtained from binding kinetics were double-referenced using a blank flow cell and a buffer cycle and were evaluated with a global 1:1 fitting model with RI. Avidities for 11 antibodies and two Fab fragments are depicted in Table 8. […] In addition, some antibodies show preferential binding to aggregated TDP-43 as compared with soluble TDP-43.

[2] = target: T1, recombinant human full-length TDP-43 …; assay: Luminex, FL TDP-43 on beads
Procedure: Mice were euthanized and fusion with myeloma cells was performed using splenocytes from four individual mice. Screening for antibodies from the successfully fused hybridoma cell lines were performed as follows. Diluted (1:32) cell culture supernatants were analyzed using Luminex bead-based multiplex assay (Luminex, The Netherlands). Luminex beads were conjugated to FL TDP-43 and with capturing IgGs with anti-mouse IgG-Fc antibodies specific for the IgG1, IgG2a, IgG2b, IgG2c, and IgG3 subclasses (Jackson Immunoresearch, USA). Binding to beads conjugated to FL TDP-43 identified 386 hits derived from mice immunized with the FL TDP-43 liposomal vaccine.
Luminex assays with serial dilution of antibodies were performed as described before to determine half maximal effective concentration (EC50) of binding of antibodies to FL TDP-43. In summary, all tested antibodies bind to full length TDP-43 with high affinity.

[3] = target: T2, TP-51 peptide (aa 352-414 of SEQ ID NO:1) (human); assay: SPR, mAb captured, TP-51 injected; mean
T2 construct: Synthetic peptide (Pepscan)
T2 peptide: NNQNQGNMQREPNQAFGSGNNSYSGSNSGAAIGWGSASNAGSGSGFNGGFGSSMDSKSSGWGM

[4] = target: T2, TP-51 peptide (aa 352-414 of SEQ ID …); assay: SPR, mAb captured, TP-51 injected
[5] = target: T1, recombinant human full-length TDP-43 …; assay: SPR, mAb captured, FL TDP-43 injected; mean
Procedure: Binding affinity to soluble FL TDP-43 was evaluated by determing the dissociation constants (KD) using surface plasmon resonance (SPR; Biacore T200, GE Healthcare Life Sciences). Goat-anti mouse capture antibody was immobilized on a CM5 Series S sensor chip (GE Healthcare Life Sciences) by amine coupling. Antibodies were captured at a concentration of 2-5 µg/ml in PBS-P⁺ (GE Healthcare Life Sciences) with a flow rate of 10 µl/min for 120 seconds resulting in a capture level of 350-1000 RU. […] Dissociation was recorded for 1 h followed by one regeneration with 10 mM glycine-HCl pH 1.7. Results obtained from binding kinetics were double-referenced using a blank flow cell and a buffer cycle and were evaluated with a global 1:1 fitting model with RI.

[6] = target: T3, recombinant human aggregated full-length TDP-43 (human, UniProt Q13148 1-414); assay: SPR, immobilized aggregated TDP-43
T3 construct: also called aggregated TDP-43; aggregated FL TDP-43
Procedure: as §1

[7] = target: T1, recombinant human full-length TDP-43 …; assay: indirect ELISA, coated FL TDP-43
Procedure: Antibody binding to human FL TDP-43 was determined using an indirect ELISA. ELISA plate coating with 1 µg/ml human FL TDP-43 was performed overnight in carbonate buffer at 4° C. Plates were washed with 0.05% Tween-20/PBS and then blocked with 1% bovine serum albumin (BSA) in 0.05% Tween-20/PBS for 1 hour at 37° C. Antibodies purified from hybridoma supernatants were then added in a 3-fold serial dilution starting at 1 µg/ml, and incubated for 2 hours at 37° C. after which the plates were washed. An AP-conjugated anti-mouse IgG secondary antibody (Jackson Immunoresearch Laboratories, United Kingdom) was added at 1/1000 dilution in 0.05% Tween-20/PBS for 1 hour at 37° C. After the final wash, plates were incubated with pNPP (Sigma-Aldrich, Switzerland) phosphatase substrate solution, and read at 405 nm using an ELISA plate reader (Tecan, Switzerland).

[8] = target: T1, recombinant human full-length TDP-43 …; assay: SPR, immobilized soluble TDP-43; whole hybridoma antibody, first SPR protocol (90 s contact); soluble TDP-43 on the chip
[9] = target: T4, Biotinylated TP-73 peptide (aa 181-190 of SEQ ID NO:1) (human, also: biotinylated (position not given here)); assay: SPR, biotinylated TP-73 on SA chip
T4 construct: Immobilized on a streptavidin (SA) sensor chip
T4 peptide: KQSQDEPLRS
Procedure: Binding avidity to soluble or aggregated FL TDP-43 was evaluated by determing the dissociation constants (KD) using surface plasmon resonance (SPR; Biacore T200, GE Healthcare Life Sciences). Recombinant human soluble or aggregated FL TDP-43 were immobilized on a CM5 Series S sensor chip (GE Healthcare Life Sciences) by amine coupling. Soluble TDP-43 was immobilized at a concentration of 5 µg/ml in 10 mM sodium acetate (pH 4.5) with a flow rate of 5 µl/min for 420 seconds resulting in an immobilization level of 150 RU. Aggregated TDP-43 was immobilized at a concentration of 50 µg/ml in 10 mM sodium acetate (pH 4.5) with a flow rate of 5 µl/min for 840 seconds resulting in an immobilization level of 110 RU. Biotinylated TP-73 peptide (aa 181-190 of SEQ ID NO:1) was immobilized on a Series S Sensor Chip SA (GE Healthcare Life Sciences) at a concentration of 5 µg/ml in PBS-P⁺ with a flow rate of 5 µl/min for 30 seconds resulting in an immobilization level of 400 RU. […] The antibodies were injected at a flow rate of 50 µl/min for 90 seconds contact time and 700 seconds dissociation phase followed by three regenerations with 10 mM glycine-HCl pH 1.7. […] Results obtained from binding kinetics were double-referenced using a blank flow cell and a buffer cycle and were evaluated with a global 1:1 fitting model with RI. […]

T3 sequence (Q13148 whole entry): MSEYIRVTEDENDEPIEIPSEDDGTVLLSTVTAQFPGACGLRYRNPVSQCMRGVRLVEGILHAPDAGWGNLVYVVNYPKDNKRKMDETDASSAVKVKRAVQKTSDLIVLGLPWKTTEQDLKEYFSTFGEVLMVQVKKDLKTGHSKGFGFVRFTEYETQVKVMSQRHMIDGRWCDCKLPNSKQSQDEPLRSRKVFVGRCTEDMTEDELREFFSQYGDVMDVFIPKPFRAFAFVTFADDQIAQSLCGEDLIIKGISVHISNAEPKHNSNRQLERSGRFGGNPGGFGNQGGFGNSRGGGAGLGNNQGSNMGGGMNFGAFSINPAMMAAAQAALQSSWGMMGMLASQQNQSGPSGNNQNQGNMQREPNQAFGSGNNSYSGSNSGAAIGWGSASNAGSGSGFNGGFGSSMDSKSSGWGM
T1 sequence (Q13148 whole entry): as above

koff [1]: 0.000319 s⁻¹
kon [1]: 873 M⁻¹ s⁻¹
EC50 [2]: < 0.01 nM
Kd [3]: 1.25 nM
koff [3]: 0.000138 s⁻¹
kon [3]: 110000 M⁻¹ s⁻¹
Kd [4]: 1.18 to 1.32 nM
Kd [5]: 0.075 nM
koff [5]: 3.45e-06 s⁻¹
kon [5]: 43900 M⁻¹ s⁻¹
Kd [6]: 0.62 nM
koff [6]: 5.01e-05 s⁻¹
kon [6]: 82100 M⁻¹ s⁻¹
EC50 [7]: 0.032 µg/mL
Kd [8]: 365 nM
B1: ACI-7069-633B12-Ab1 (antibody, mouse IgG2b, V domains shown)
VH: EVQLQQSGPELVKPGASVKISCKTSGFTFTEYSMHWVKQSHGKSLEWIGGINPNNGGTSYNQKFKGKATLTVDKSSSTAYMELRSLTSEDSAVYYCARESWGQGTTLTVSS
VL: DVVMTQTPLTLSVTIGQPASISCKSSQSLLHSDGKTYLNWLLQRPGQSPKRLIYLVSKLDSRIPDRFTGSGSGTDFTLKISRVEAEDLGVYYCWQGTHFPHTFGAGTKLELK
notes: Mouse IgG2b, kappa, from hybridoma; also called 633B12C8

Kd [1]: 5.28 nM
koff [1]: 0.000838 s⁻¹
kon [1]: 159000 M⁻¹ s⁻¹
EC50 [2]: < 0.01 nM
Kd [5]: 0.249 nM
koff [5]: 2.76e-05 s⁻¹
kon [5]: 110000 M⁻¹ s⁻¹
Kd [6]: 0.88 nM
koff [6]: 0.000131 s⁻¹
kon [6]: 148000 M⁻¹ s⁻¹
EC50 [7]: 0.014 µg/mL
Kd [9]: 3.6 nM
B2: ACI-7069-642D12-Ab1 (antibody, mouse IgG2b, V domains shown)
VH: EVQLQQSGAELVKPGASVRLSCTASGFNIKDPYMHWVRQRPKQGLEWIGRIDPADGNTKYDPKFQGKATLTADTSSNVAYLHLSSLTSEDTAVYYCARFYGSSHWYFDVWGAGTTVTVSS
VL: DIKMTQSPSSMYASLGERVTITCKASQDIKRYLSWYQQKPWKSPKILIYYATSLADGVPSRFSGTGSGQDYSLTISSLESDDVATYYCLQQGESPYTFGGGTKLEIK
notes: Mouse IgG2b, kappa, from hybridoma; also called 642D12B4
